# Residue numbers refer to the chain shown, from its start. Like-named read-outs stand apart in the source and are kept apart here.
# B1: Peptide 1593 (…) (peptide)
# peptide: TDAATLAQEAGNFERC
# modifications: not checked
# B2: Antibody 10G3-1 (antibody, V domains shown)
# VH: QSVEESGGRLVTPGTPLTLTCTASGFSLSDDAMSWVRQAPGKGLEWIGIIGRRGKTWYANWAKGRFTISKTSTTVDLKITSPTTEDTATYFCARGYVSSDWNIYGMDLWGPGTLVTVSA
# VL: QVLTQTPSPVSAAVGGTVTINCQASQSVYNNKNLAWYQQKSGQPPKLLIYEASKLASGVPSRFKGSGSGTQFTLTISGVQCDDAATYYCQGEFSCSSADCFTFGGGTEVVVK
# B3: monoclonal antibody 65D3-1 (antibody, V domains shown)
# VH: QSLEESGGRLVTPGGSLTLTCTVSGFSLSTHDISWVRQAPGKGLEWIGVIARRGSTYYASWAKGRFTISKTSTTVDLKITSPTIEDTATYFCAREEFDFWGQGTLVTVSS
# VL: AVLTQTASPVSAAVGGTVTISCQSSQSVYNNKELSWFQQKPGQPPKLLISYASTLASGVPSRFKGSGSGTQFTLTISDLECDDAATYYCLGGYASTIDMWAFGGGTEVVVK
# B4: 65D3 wild-type recombinant IgG (VH + VL) (antibody, V domains shown)
# VH: B3 VH
# VL: B3 VL
# B5: Antibody 67G8-2 (antibody, V domains shown)
# VH: QSVEESGGRLVTPGTPLTLTCTVSGFSLGNYDGHWVRQTPEKGLEWIGVIATIGDTYYASWAKGRFSISKTSATVELRITSPTTEDTATYFCVRGDSRTSNEIFNLWGQGTLVTVSS
# VL: AVLTQTPSPVSAAVGGTLTINCQSTRSVHNNICLSWYQQKPGQPPKLLIYSASTLASGVPSRFKGSGSGTQFTLAINDVQCGDAATYYCAGCFPSKSDMYGFGGGTEVVVK
# B6: Antibody 135A6-1 (antibody, V domains shown)
# VH: QSVEESGGRLVTPGTPLTLTCTVSGFSLGNYDISWVRQAPGKGLEWIGVIATVGDTYYASWAKGRFTISKTSATVDLKITSPTTEDTATYFCVRGDSPSTNEIFGLWGQGTLVTVSS
# VL: B5 VL with T25S, S27T, H29Y, P41L, S51G, A56T, K64R, A75T, K96T
# B7: Antibody 6D10-1 (antibody, V domains shown)
# VH: QSVEESGGRLVTPGTPLTLTCTVSGFSLSDVTMSWVRQAPGKGLEWIGIIGRRGRIWYANWAKGRFTISKTSPTVDLKIISPTSDDTATYFCARGAVSSDWNMYGMDLWGPGTLVTVSS
# VL: QVLTQTPSSVSAPVGGTVTINCQSSQSVYNNENLAWYQQKLGQPPKLLIYGASTLASGVSSRFEGSGSGTQFALTISGVQCDDAATYYCQGEFDCSSADCFAFGGGTEVVVK
# B8: Antibody 5B7-1 (antibody, V domains shown)
# VH: QSVEESGGRLVTPGTPLTLTCTVSGFSLSDVTISWVRQAPGKGLKWTGIIGRRGRIRYADWAKGRFTISKTSTTVDLKITSPTTDDTATYFCARAYVSSDWNIYGMDLWGPGTLVTVSS
# VL: B7 VL with P7A, S9P, S24A, E32K, G51E, T54K, A102V
# B9: Antibody 55H8-1 (antibody, V domains shown)
# VH: B2 VH with V3M, A23V, D31H, I50V, K55R, W57Y, N60S, T84I, A119S
# VL: B2 VL with S41P, K54T, P60S, S94D, T102A
# B10: Antibody 91B4-1 (antibody, V domains shown)
# VH: QSLEESGGRLVSPGGSLTLTCTVSGIDLSRFGVSWVRQAPGKGLEWTGYIHTDGNVYYASWAKGRFTISKTSTTVDLKMTSLTTEDTATYFCARGGYAADLWGQAALVTVSS
# VL: DPMLTQTPSSVSAAVGGTVTISCQSSESVYKNYLAWYQQKLGQPPKLLIGATSTLVSGVPSRFKGSGSRTQFSLTISDLECDDAATYYCVGGYTGKNVFGGGTEVVVK
# B11: Antibody 101G10-2 (antibody, V domains shown)
# VH: QSVEESGGRLVTPGTPLTLTCTVSGFSLSSYDMTWVRQAPGKGLEYIGVISYGGSAYYASWAKGRFTISKTSTTVDLKITSPTTEDTATYFCARGDSDGSSELFNLWGQGTLVTVSS
# VL: AVLTQTPSPVSAPVGGTVSINCQSSKSVYNNNCLSWYQQKPGQPPNLLIYGASTLASGVPSRFKGSGSGTQFTLTINDVQCDDAATYYCAGCFASTNDMYGFGGGSEVVVK
# B12: Antibody 125D9-1 (antibody, V domains shown)
# VH: B11 VH with S2P, I50V, S51A, S55A, A56T
# VL: B11 VL with P13A, S19T, P41Q, N46K, G51Q, L55P, N97S, S106T, E107G
# B13: Antibody 3E9-1 (antibody, V domains shown)
# VH: QSLEESGGRLVTPGGSLTLTCTVSGIDLSSNAMGWVRQAPGEGLEWIGSIYASGNTYYASWAKGRFAISKTSTTVDLKMTSLTAADTATYFCARLFNIWGPGTLVTVSS
# VL: ADIVLTQTPASVSSVVGGTVTINCQASQSVFDNKNLSWFQQKPGQPPKQLIYGASTLDSGVPSRFKGSGSGTQFTLTISDMQCDDAATYYCGGRDSGNIYDFGGGTEVVVK
# B14: Antibody 4G6-1 (antibody, V domains shown)
# VH: B13 VH with G15T, S16P, E45Q, A52S, K63R, K70R
# VL: B13 VL with L5V, S14A, V15D, F31Y, S37A, L57V, D58A, M81V, S96N, G97D
# B15: Antibody 21F10-1 (antibody, V domains shown)
# VH: QSVEESGGRLVTPGTPLTLTCTVSGIDLSSNAVGWVRQAPGEGLEWIGSIYSSGNSYYASWAKGRFAISRTSTTVDLKMTRLTAADTATYFCARLFNIWGPGTLVTVS
# VL: B13 VL with T21A, F31Y, P46T, D58A, D80G, M81V, S96D, G97D
# B16: Antibody 76H12-1 (antibody, V domains shown)
# VH: B13 VH with S2E, E4K, T20S, V23A, S30G, N31S, E42Q, A52V, K70R, F96L
# VL: B13 VL with A10S, S11P, S14I, V15A, F31Y, S37A, D58A, D80G, G97D
# How the values were obtained:
# [1] = molecular target: monoclonal antibody 65D3-1
# [2] = molecular target: Peptide 2004 (…) (Mycobacterium tuberculosis)
# [3] = molecular target: Peptide 1593 (…) (Mycobacterium tuberculosis)
# [4] = molecular target: Peptide 1593 (…) (Mycobacterium tuberculosis); test: SPR (Biacore 8K), antibody immobilised, peptide as analyte
# [5] = molecular target: Peptide 1593 (…) (Mycobacterium tuberculosis); test: SPR (Biacore 8K), antibody amine-coupled to CM5, peptide as analyte, 25 C
# [6] = molecular target: Peptide 1593 (…) (Mycobacterium tuberculosis); test: SPR (Biacore), IgG amine-coupled, peptide as analyte
# [7] = molecular target: Peptide 1593 (…) (Mycobacterium tuberculosis); remark: listed apart in the source
# [8] = molecular target: Peptide 1593 (…) (Mycobacterium tuberculosis); test: indirect ELISA, supernatant on 1 ug/ml coated peptide
# [9] = molecular target: Peptide 1593 (…) (Mycobacterium tuberculosis); test: indirect ELISA, recombinant antibody on 1 ug/ml coated peptide
binder,measurement,setting,value
B1,IC50 (read off the curve),[1],2 nM
B2,rank by relative ELISA signal across the dilution series (1 = highest),[2],5
B3,koff,[3],0.000238 s⁻¹
same,kon,[3],138000 M⁻¹ s⁻¹
same,Kd,[4],1.72 nM
same,Kd,[5],1.72 nM
B4,Kd,[6],0.755 nM
same,koff,[6],0.00017 s⁻¹
same,kon,[6],225000 M⁻¹ s⁻¹
B5,Kd,[7],0.101 nM
same,koff,[7],3.02e-05 s⁻¹
same,kon,[7],299000 M⁻¹ s⁻¹
same,"OD450, supernatant 1:90",[8],3.1 OD450
same,"OD450, supernatant 1:270",[8],2.33 OD450
same,"OD450, supernatant 1:810",[8],1.31 OD450
same,"OD450, supernatant 1:2,430",[8],0.616 OD450
same,"OD450, supernatant undiluted",[8],3.22 OD450
same,Titer,[8],> 2430 dilution 1:x
same,"OD450 at 1.95 ng/ml (1:512,000)",[9],0.876 OD450
same,"OD450 at 3.90 ng/ml (1:256,000)",[9],1.21 OD450
same,"OD450 at 7.81 ng/ml (1:128,000)",[9],1.66 OD450
same,"OD450 at 15.62 ng/ml (1:64,000)",[9],2.14 OD450
same,"OD450 at 31.25 ng/ml (1:32,000)",[9],2.45 OD450
same,"OD450 at 62.50 ng/ml (1:16,000)",[9],2.61 OD450
same,"OD450 at 125.00 ng/ml (1:8,000)",[9],2.76 OD450
same,"OD450 at 250.00 ng/ml (1:4,000)",[9],2.8 OD450
same,"OD450 at 500.00 ng/ml (1:2,000)",[9],2.83 OD450
same,"OD450 at 1,000.00 ng/ml (1:1,000)",[9],2.85 OD450
same,Titer,[9],> 512000 dilution 1:x
B6,"OD450, supernatant 1:90",[8],3.46 OD450
same,"OD450, supernatant 1:270",[8],3.22 OD450
same,"OD450, supernatant 1:810",[8],2.68 OD450
same,"OD450, supernatant 1:2,430",[8],1.69 OD450
same,"OD450, supernatant undiluted",[8],3.27 OD450
same,Titer,[8],> 2430 dilution 1:x
B7,rank by relative ELISA signal across the dilution series (1 = highest),[2],2
B8,rank by relative ELISA signal across the dilution series (1 = highest),[2],3
B9,rank by relative ELISA signal across the dilution series (1 = highest),[2],4
B10,"OD450, supernatant 1:90",[8],3.04 OD450
same,"OD450, supernatant 1:270",[8],2.27 OD450
same,"OD450, supernatant 1:810",[8],1.3 OD450
same,"OD450, supernatant 1:2,430",[8],0.618 OD450
same,"OD450, supernatant undiluted",[8],3.12 OD450
same,Titer,[8],> 2430 dilution 1:x
B11,"OD450, supernatant 1:90",[8],3.22 OD450
same,"OD450, supernatant 1:270",[8],3.21 OD450
same,"OD450, supernatant 1:810",[8],3.1 OD450
same,"OD450, supernatant 1:2,430",[8],2.41 OD450
same,"OD450, supernatant undiluted",[8],3.23 OD450
same,Titer,[8],> 2430 dilution 1:x
B12,"OD450, supernatant 1:90",[8],3.37 OD450
same,"OD450, supernatant 1:270",[8],3.31 OD450
same,"OD450, supernatant 1:810",[8],3.27 OD450
same,"OD450, supernatant 1:2,430",[8],2.85 OD450
same,"OD450, supernatant undiluted",[8],3.2 OD450
same,Titer,[8],> 2430 dilution 1:x
B13,rank by relative ELISA signal across the dilution series (1 = highest),[2],7
B14,rank by relative ELISA signal across the dilution series (1 = highest),[2],10
B15,rank by relative ELISA signal across the dilution series (1 = highest),[2],11
B16,rank by relative ELISA signal across the dilution series (1 = highest),[2],8

# From patent US12649778
